In publication PMC10616141:
Residue numbers refer to the chain shown, from its start. One block for each binder: values may come before it.

Target: Orai1-CFP, Q96D31
Assay: E-FRET in cells (Orai1-CFP / STIM1-YFP)
Conditions: chain shown with the change, HEK-S1S2dKO-O1CFP cells, store-depletion with 2.5 µM ionomycin, parent: est. 0.11, read off a plot

Orai1-CFP, Q96D31, sequence (Q96D31 whole entry): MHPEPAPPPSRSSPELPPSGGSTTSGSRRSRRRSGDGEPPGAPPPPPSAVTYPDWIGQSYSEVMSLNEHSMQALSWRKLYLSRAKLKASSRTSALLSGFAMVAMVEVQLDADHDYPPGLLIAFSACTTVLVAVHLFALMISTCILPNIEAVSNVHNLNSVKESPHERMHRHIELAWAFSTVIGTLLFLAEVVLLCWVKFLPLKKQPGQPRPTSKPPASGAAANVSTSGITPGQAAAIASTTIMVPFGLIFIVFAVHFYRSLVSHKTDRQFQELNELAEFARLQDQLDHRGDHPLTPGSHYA

response (n = 107 (WT n = 579)): 0.034
B2: STIM1-YFP-WT, Q13586 V396del; A397del (protein)
chain: LSHSHSEKATGTSSGANSEESTAAEFCRIDKPLCHSEDEKLSFEAVRNIHKLMDDDANGDVDVEESDEFLREDLNYHDPTVKHSTFHGEDKLISVEDLWKAWKSSEVYNWTVDEVVQWLITYVELPQYEETFRKLQLSGHAMPRLAVTNTTMTGTVLKMTDRSHRQKLQLKALDTVLFGPPLLTRHNHLKDFMLVVSIVIGVGGCWFAYIQNRYSKEHMKKMMKDLEGLHRAEQSLHDLQERLHKAQEEHRTVEVEKVHLEKKLRDEINLAKQEAQRLKELREGTENERSRQKYAEEELEQVREALRKAEKELESHSSWYAPEALQKWLQLTHEVEVQYYNIKKQNAEKQLLVAKEGAEKIKKKRNTLFGTFHHSSSLDDVDHKILTAKQALSEVTAALRERLHRWQQIEILCGFQIVNNPGIHSLVAALNIDPSWMGSTRPNPAHFIMTDDVDDMDEEIVSPLSMQSPSLQSSVRQRLTEPQHGLGSQRDLTHSDSESSLHMSDRQRVAPKPPQMSRAADEALNAMTSNGSHRLIEGVHPGSLVEKLPDSPALAKKALLALNHGLDKAHSLMELSPSAPPGGSPHLDSSRSHSPSSPDPDTPSPVGDSRALQASRNTRIPHLAGKKAVAEEDNGSIGEETDSSPGRKKFPLKIFKKPLKK

response (n = 100 (WT n = 579)): 0.07
B4: STIM1-YFP-WT, Q13586 H398del (protein)
chain: LSHSHSEKATGTSSGANSEESTAAEFCRIDKPLCHSEDEKLSFEAVRNIHKLMDDDANGDVDVEESDEFLREDLNYHDPTVKHSTFHGEDKLISVEDLWKAWKSSEVYNWTVDEVVQWLITYVELPQYEETFRKLQLSGHAMPRLAVTNTTMTGTVLKMTDRSHRQKLQLKALDTVLFGPPLLTRHNHLKDFMLVVSIVIGVGGCWFAYIQNRYSKEHMKKMMKDLEGLHRAEQSLHDLQERLHKAQEEHRTVEVEKVHLEKKLRDEINLAKQEAQRLKELREGTENERSRQKYAEEELEQVREALRKAEKELESHSSWYAPEALQKWLQLTHEVEVQYYNIKKQNAEKQLLVAKEGAEKIKKKRNTLFGTFHVASSSLDDVDHKILTAKQALSEVTAALRERLHRWQQIEILCGFQIVNNPGIHSLVAALNIDPSWMGSTRPNPAHFIMTDDVDDMDEEIVSPLSMQSPSLQSSVRQRLTEPQHGLGSQRDLTHSDSESSLHMSDRQRVAPKPPQMSRAADEALNAMTSNGSHRLIEGVHPGSLVEKLPDSPALAKKALLALNHGLDKAHSLMELSPSAPPGGSPHLDSSRSHSPSSPDPDTPSPVGDSRALQASRNTRIPHLAGKKAVAEEDNGSIGEETDSSPGRKKFPLKIFKKPLKK

The remaining lines, values behind:

B1: STIM1-YFP-WT, Q13586 H395del; V396del (protein)
chain: B2 chain with H373A
response (n = 87 (WT n = 579)): 0.074

B3: STIM1-YFP-WT, Q13586 F394del (protein)
chain: B4 chain with F372H, H373V, V374A, A375H
response (n = 106 (WT n = 579)): 0.003

B5: STIM1-YFP-WT, Q13586 H395del (protein)
chain: B4 chain with H373V, V374A, A375H
response (n = 207 (WT n = 579)): 0.082
